According to patent US20110311550A1:

Assays:
Assay in all cases: ELISA, lectin-captured E1E2 lysate, Ab 1 ug/ml
[1] = molecular target: E1E2 complex (H77) with E2 mutation A439G (HCV genotype 1a, isolate H77) (UniProt P27958)
[2] = molecular target: E1E2 complex (H77) with E1 mutation M324A (HCV genotype 1a, isolate H77) (UniProt P27958)
[3] = molecular target: E1E2 complex (H77) with E1 mutation H352A (HCV genotype 1a, isolate H77) (UniProt P27958)
[4] = molecular target: E1E2 complex (H77) with E2 mutation A643G (HCV genotype 1a, isolate H77) (UniProt P27958)
[5] = molecular target: E1E2 complex (H77) with E1 mutation M322A (HCV genotype 1a, isolate H77) (UniProt P27958)
[6] = molecular target: E1E2 complex (H77) with E1 mutation I212A (HCV genotype 1a, isolate H77) (UniProt P27958)
[7] = molecular target: E1E2 complex (H77) with E2 mutation R614A (HCV genotype 1a, isolate H77) (UniProt P27958)
[8] = molecular target: E1E2 complex (H77) with E1 mutation R195A (HCV genotype 1a, isolate H77) (UniProt P27958)
[9] = molecular target: E1E2 complex (H77) with E1 mutation S294A (HCV genotype 1a, isolate H77) (UniProt P27958)
[10] = molecular target: E1E2 complex (H77) with E1 mutation Y192A (HCV genotype 1a, isolate H77) (UniProt P27958)
[11] = molecular target: E1E2 complex (H77) with E1 mutation P328A (HCV genotype 1a, isolate H77) (UniProt P27958)
[12] = molecular target: E1E2 complex (H77) with E1 mutation V227A (HCV genotype 1a, isolate H77) (UniProt P27958)
[13] = molecular target: E1E2 complex (H77) with E2 mutation H617A (HCV genotype 1a, isolate H77) (UniProt P27958)
[14] = molecular target: E1E2 complex (H77) with E2 mutation G635A (HCV genotype 1a, isolate H77) (UniProt P27958)
[15] = molecular target: E1E2 complex (H77) with E1 mutation D206A (HCV genotype 1a, isolate H77) (UniProt P27958)
[16] = molecular target: E1E2 complex (H77) with E1 mutation Y201A (HCV genotype 1a, isolate H77) (UniProt P27958)
[17] = molecular target: E1E2 complex (H77) with E2 mutation G436A (HCV genotype 1a, isolate H77) (UniProt P27958)
[18] = molecular target: E1E2 complex (H77) with E1 mutation G354A (HCV genotype 1a, isolate H77) (UniProt P27958)
[19] = molecular target: E1E2 complex (H77) with E1 mutation T292A (HCV genotype 1a, isolate H77) (UniProt P27958)

mouse anti-E1 MAb A4 (antibody)
Binding relative to wt (%) [1]: 119% | Binding relative to wt (%) [2]: 80% | Binding relative to wt (%) [3]: 85% | Binding relative to wt (%) [4]: 131% | Binding relative to wt (%) [5]: 115% | Binding relative to wt (%) [6]: 125% | Binding relative to wt (%) [7]: 133% | Binding relative to wt (%) [8]: 197% | Binding relative to wt (%) [9]: 99% | Binding relative to wt (%) [10]: 134% | Binding relative to wt (%) [11]: 123% | Binding relative to wt (%) [12]: 150% | Binding relative to wt (%) [13]: 140% | Binding relative to wt (%) [14]: 109% | Binding relative to wt (%) [15]: 81% | Binding relative to wt (%) [16]: 5% | Binding relative to wt (%) [17]: 96% | Binding relative to wt (%) [18]: 105% | Binding relative to wt (%) [19]: 90%
